Data reported in article PMC3310434 (Tuberculosis (Edinburgh, Scotland), 2011).

Legend:
[1] = target: the molecule itself; test: dynamic light scattering
[2] = target: T1, VapC-3 toxin of Mtb VapBC-3 (Rv0300-Rv0301) (Mycobacterium tuberculosis, UniProt P9WFB9 2-141); test: crystal structure
T1 sequence: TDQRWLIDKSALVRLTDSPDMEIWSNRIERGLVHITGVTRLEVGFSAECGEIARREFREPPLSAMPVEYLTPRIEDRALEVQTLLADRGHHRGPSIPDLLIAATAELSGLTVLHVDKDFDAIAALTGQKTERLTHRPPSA

[3] = target: the molecule itself; test: crystal structure
[4] = target: the molecule itself; test: crystal structure; remark: listed apart in the source

B1: Rv0812, putative Mtb 4-amino-4-deoxychorismate (ADC) lyase (PabC) (enzyme)
chain: MVVTLDGEILQPGMPLLHADDLAAVRGDGVFETLLVRDGRACLVEAHLQRLTQSARLMDLPEPDLPRWRRAVEVATQRWVASTADEGALRLIYSRGREGGSAPTAYVMVSPVPARVIGARRDGVSAITLDRGLPADGGDAMPWLIASAKTLSYAVNMAVLRHAARQGAGDVIFVSTDGYVLEGPRSTVVIATDGDQGGGNPCLLTPPPWYPILRGTTQQALFEVARAKGYDCDYRALRVADLFDSQGIWLVSSMTLAARVHTLDGRRLPRTPIAEVFAELVDAAIVSDR
- stoichiometry N [1]: 2

B2: VapB-3 antitoxin of Mtb VapBC-3 (Rv0300-Rv0301) (natural protein)
chain: MSDVLIRDIPDDVLASLDAIAARLGLSRTEYIRRRLAQDAQTARVTVTAADLRRLRGAVAGLGDPELMRQAWR
- binding result [2]: binds
- binding result [3]: binds

B3: Mtb fumarase (enzyme)
chain: MAVDADSANYRIEHDTMGEVRVPAKALWRAQTQRAVENFPISGRGLERTQIRALGLLKGACAQVNSDLGLLAPEKADAIIAAAAEIADGQHDDQFPIDVFQTGSGTSSNMNTNEVIASIAAKGGVTLHPNDDVNMSQSSNDTFPTATHIAATEAAVAHLIPALQQLHDALAAKALDWHTVVKSGRTHLMDAVPVTLGQEFSGYARQIEAGIERVRACLPRLGELAIGGTAVGTGLNAPDDFGVRVVAVLVAQTGLSELRTAANSFEAQAARDGLVEASGALRTIAVSLTKIANDIRWMGSGPLTGLAEIQLPDLQPGSSIMPGKVNPVLPEAVTQVAAQVIGNDAAIAWGGANGAFELNVYIPMMARNILESFKLLTNVSRLFAQRCIAGLTANVEHLRRLAESSPSIVTPLNSAIGYEEAAAVAKQALKERKTIRQTVIDRGLIGDRLSIEDLDRRLDVLAMAKAEQLDSDRL
- stoichiometry N [4]: 4
